We go through 1 molecule from publication PMC6879724, “Insect Hsp90 Chaperone Assists Bacillus thuringiensis Cry Toxicity by Enhancing Protoxin Binding to the Receptor and by Protecting Protoxin from Gut Protease Degradation” (mBio, 2019).

The target in one test is Cry1Ac protoxin (Bacillus thuringiensis (strain HD73), UniProt P05068 1-1178). Put plainly: ELISA; plates coated with 0.5 ug protoxin or activated toxin in PBS; PxHsp90 in Hsp90 buffer (1 mM ATP, 1 mM Mg in PBS) added for 1 h at 37 C; detected with anti-polyhistidine-peroxidase antibody; one sample without ATP (binding significantly reduced). The following applies: both partners purified.

The target of the next test is T1, Cry1Ab protoxin (Bacillus thuringiensis, UniProt P0A370 1-1155).
T1 construct: also called 130-kDa protoxin
The test is described as above. The following applies: both partners purified.

B1: Plutella xylostella Hsp90 (natural protein)
chain: not shown
notes: Hsp90 of Plutella xylostella, gene Pxhsp90 (GenBank AB214972.1), amplified from genomic DNA with primers from the start codon (NdeI) to the stop codon (BamHI); Cloned NdeI-BamHI into pET28b with its own stop codon, so the His tag is probably N-terminal (surmised); detected in the ELISA with an anti-polyhistidine antibody; also called PxHsp90; source: E. coli BL21 (pET28b), purified (Ni-NTA from …)
B1: the binding result with Cry1Ac protoxin and with Cry1Ab protoxin was “binds” each time.
